Data: patent US20170247475A1 (Boehringer Ingelheim, published 2017)
Like-named read-outs stand apart in the source and are kept apart here. Blank lines part the entries; values can stand above or below the binder they belong to.

Legend:
mAng2 [1] = molecular target: T1, mAng2; test: competition ELISA, blocking of mAng2 binding to mTie2-Fc
T1 construct: may be the same protein as m22 (mouse Ang2-FLD); also called mouse Ang2
T1 chain: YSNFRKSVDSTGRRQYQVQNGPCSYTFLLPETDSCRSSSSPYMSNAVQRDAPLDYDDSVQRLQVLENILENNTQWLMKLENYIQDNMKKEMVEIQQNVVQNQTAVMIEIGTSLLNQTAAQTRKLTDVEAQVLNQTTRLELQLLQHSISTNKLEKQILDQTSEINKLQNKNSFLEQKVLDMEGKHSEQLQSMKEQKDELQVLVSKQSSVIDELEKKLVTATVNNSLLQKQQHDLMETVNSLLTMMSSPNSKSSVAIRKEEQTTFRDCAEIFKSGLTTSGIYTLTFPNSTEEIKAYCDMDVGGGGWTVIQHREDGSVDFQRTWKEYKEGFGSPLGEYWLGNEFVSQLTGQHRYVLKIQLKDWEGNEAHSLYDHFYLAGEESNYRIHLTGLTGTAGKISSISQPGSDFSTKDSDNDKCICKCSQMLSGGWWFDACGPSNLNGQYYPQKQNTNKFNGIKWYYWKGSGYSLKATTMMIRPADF

hAng2 [2] = molecular target: T2, hAng2; test: competition ELISA, blocking of hAng2 binding to hTie2-Fc
T2 construct: may be the same protein as m20 (human Ang2-FLD); also called human Ang2
T2 chain: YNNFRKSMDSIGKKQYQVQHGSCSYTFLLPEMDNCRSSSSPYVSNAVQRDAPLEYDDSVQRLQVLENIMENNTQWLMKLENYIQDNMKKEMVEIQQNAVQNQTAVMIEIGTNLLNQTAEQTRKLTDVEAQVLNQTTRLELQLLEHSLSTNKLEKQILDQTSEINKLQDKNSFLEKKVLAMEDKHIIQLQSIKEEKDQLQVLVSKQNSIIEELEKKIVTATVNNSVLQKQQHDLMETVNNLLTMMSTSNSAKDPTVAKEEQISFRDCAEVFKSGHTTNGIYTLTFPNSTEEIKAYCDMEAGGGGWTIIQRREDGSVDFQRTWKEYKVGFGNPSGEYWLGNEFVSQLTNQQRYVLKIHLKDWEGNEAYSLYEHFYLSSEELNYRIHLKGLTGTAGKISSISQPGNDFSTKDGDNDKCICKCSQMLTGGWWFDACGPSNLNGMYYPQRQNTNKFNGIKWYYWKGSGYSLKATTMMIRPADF

cAng2 [3] = molecular target: T3, cAng2 (cynomolgus monkey); test: competition ELISA, blocking of cAng2 binding to cTie2-Fc
T3 construct: may be the same protein as m21 (cyno Ang2-FLD); also called cyno Ang2

hAng2 [4] = molecular target: T2, hAng2; test: cell-based or functional assay
hAng2 [5] = molecular target: T4, hAng2; test: competition ELISA, blocking of hAng2 binding to hTie2
T4 construct: also called human Ang2
T4 chain: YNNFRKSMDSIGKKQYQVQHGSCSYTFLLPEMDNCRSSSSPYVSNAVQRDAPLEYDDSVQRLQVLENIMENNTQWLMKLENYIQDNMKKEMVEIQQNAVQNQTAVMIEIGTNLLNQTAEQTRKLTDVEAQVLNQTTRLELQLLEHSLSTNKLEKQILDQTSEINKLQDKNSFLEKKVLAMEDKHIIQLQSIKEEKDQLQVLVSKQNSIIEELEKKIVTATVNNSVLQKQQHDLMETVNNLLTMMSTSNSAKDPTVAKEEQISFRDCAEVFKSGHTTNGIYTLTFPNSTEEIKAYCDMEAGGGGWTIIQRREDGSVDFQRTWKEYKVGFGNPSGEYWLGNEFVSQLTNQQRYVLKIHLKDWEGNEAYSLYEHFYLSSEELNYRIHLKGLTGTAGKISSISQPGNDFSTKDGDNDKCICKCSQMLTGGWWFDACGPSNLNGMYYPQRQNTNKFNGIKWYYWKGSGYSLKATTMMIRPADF

mAng2 [6] = molecular target: T5, mAng2; test: competition ELISA, blocking of mAng2 binding to mTie2
T5 construct: also called mouse Ang2
T5 chain: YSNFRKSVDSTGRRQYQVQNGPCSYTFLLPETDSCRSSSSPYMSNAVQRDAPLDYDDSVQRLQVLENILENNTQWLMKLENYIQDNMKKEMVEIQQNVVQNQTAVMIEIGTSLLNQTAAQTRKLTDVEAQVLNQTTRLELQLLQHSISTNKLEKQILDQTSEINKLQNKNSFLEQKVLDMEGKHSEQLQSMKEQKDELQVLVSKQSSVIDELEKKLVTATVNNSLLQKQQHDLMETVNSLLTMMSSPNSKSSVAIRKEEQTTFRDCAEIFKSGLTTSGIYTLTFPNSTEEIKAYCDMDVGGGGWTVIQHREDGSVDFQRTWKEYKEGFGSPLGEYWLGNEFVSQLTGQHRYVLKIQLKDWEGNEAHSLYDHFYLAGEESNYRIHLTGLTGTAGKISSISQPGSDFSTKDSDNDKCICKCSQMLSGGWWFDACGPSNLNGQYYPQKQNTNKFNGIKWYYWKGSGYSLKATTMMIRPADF

cAng2 [7] = molecular target: T6, cAng2 (cynomolgus monkey); test: competition ELISA, blocking of cAng2 binding to cTie2
T6 construct: also called cyno Ang2

hAng2 [8] = molecular target: T2, hAng2; test: competition ELISA, blocking of hAng2 binding to hTie2-Fc
mAng2 [9] = molecular target: T1, mAng2; test: competition ELISA, blocking of mAng2 binding to mTie2-Fc
hAng2 [10] = molecular target: T2, hAng2; test: cell-based or functional assay
cAng2 [11] = molecular target: T3, cAng2; test: competition ELISA, blocking of cAng2 binding to cTie2-Fc; remark: listed apart in the source
human VEGFR2-Fc chimera = molecular target: T7, human VEGFR2-Fc chimera (human, UniProt P35968 20-764); test: binding ELISA on coated human VEGF121
T7 construct: bought (R&D Systems); also called hVEGFR2-Fc; VEGFR2-huFc
Experimental: Binding to recombinant human VEGF121 is assessed via a solid phase binding ELISA. Briefly, recombinant human VEGF121 (R&D Systems, Minneapolis, Minn., USA) is coated overnight at 4° C. at 1 μg/mL in a 96-well MaxiSorp plate (Nunc, Wiesbaden, Germany). Wells are blocked with a casein solution (1% in PBS).

mAng2 [12] = molecular target: T1, mAng2; test: competition ELISA, blocking of mAng2 binding to mTie2-Fc
hAng2 [13] = molecular target: T2, hAng2; test: competition ELISA, blocking of hAng2 binding to hTie2-Fc
hAng2 [14] = molecular target: T2, hAng2; test: cell-based or functional assay
cAng2 [15] = molecular target: T3, cAng2; test: competition ELISA, blocking of cAng2 binding to cTie2-Fc; remark: listed apart in the source
cAng2 [16] = molecular target: T8, cAng2 (cynomolgus monkey); test: competition ELISA cAng2/cTie2-Fc; blocked: cTie2-Fc
T8 construct: construct not given; also called cyno Ang2

mAng2 [17] = molecular target: T9, mAng2; test: competition ELISA mAng2/mTie2-Fc; blocked: mTie2-Fc
T9 construct: also called mouse Ang2
T9 chain: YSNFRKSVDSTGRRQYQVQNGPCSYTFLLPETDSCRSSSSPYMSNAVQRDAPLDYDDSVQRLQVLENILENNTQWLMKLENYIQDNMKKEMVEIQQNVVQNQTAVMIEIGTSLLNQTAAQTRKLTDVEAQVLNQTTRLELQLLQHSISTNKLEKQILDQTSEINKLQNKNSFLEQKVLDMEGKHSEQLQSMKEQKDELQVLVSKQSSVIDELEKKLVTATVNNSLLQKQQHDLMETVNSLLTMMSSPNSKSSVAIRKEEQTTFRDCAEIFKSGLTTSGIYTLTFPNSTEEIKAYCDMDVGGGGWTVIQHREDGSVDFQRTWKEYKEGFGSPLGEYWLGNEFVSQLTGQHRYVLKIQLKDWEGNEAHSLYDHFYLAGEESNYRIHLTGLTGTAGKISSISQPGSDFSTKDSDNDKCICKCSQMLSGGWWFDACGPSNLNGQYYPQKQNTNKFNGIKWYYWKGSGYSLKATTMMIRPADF

hAng2 [18] = molecular target: T10, hAng2; test: competition ELISA hAng2/hTie2-Fc; blocked: hTie2-Fc
T10 construct: also called human Ang2
T10 chain: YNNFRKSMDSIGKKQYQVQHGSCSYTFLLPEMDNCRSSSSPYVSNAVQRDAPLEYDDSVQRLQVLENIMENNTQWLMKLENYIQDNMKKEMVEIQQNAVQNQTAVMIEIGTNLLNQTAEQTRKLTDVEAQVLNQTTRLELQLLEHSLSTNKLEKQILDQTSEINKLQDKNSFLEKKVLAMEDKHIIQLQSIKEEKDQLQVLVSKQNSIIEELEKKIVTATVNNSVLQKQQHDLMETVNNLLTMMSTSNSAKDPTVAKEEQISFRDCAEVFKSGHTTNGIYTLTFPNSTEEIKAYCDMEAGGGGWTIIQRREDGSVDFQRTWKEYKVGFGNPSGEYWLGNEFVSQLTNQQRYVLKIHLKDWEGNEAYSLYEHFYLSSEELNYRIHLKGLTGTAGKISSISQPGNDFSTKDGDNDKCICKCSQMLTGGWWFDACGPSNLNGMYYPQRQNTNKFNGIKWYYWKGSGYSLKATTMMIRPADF

mAng2 [19] = molecular target: T9, mAng2; test: competition ELISA mAng2/mTie2-Fc; blocked: mTie2-Fc
cAng2 [20] = molecular target: T8, cAng2; test: competition ELISA cAng2/cTie2-Fc; blocked: cTie2-Fc; remark: listed apart in the source
cAng2 [21] = molecular target: T8, cAng2; test: as above; remark: listed apart in the source
mAng2 [22] = molecular target: T9, mAng2; test: competition ELISA mAng2/mTie2-Fc; blocked: mTie2-Fc

T7 sequence (P35968 20-764, change not shown): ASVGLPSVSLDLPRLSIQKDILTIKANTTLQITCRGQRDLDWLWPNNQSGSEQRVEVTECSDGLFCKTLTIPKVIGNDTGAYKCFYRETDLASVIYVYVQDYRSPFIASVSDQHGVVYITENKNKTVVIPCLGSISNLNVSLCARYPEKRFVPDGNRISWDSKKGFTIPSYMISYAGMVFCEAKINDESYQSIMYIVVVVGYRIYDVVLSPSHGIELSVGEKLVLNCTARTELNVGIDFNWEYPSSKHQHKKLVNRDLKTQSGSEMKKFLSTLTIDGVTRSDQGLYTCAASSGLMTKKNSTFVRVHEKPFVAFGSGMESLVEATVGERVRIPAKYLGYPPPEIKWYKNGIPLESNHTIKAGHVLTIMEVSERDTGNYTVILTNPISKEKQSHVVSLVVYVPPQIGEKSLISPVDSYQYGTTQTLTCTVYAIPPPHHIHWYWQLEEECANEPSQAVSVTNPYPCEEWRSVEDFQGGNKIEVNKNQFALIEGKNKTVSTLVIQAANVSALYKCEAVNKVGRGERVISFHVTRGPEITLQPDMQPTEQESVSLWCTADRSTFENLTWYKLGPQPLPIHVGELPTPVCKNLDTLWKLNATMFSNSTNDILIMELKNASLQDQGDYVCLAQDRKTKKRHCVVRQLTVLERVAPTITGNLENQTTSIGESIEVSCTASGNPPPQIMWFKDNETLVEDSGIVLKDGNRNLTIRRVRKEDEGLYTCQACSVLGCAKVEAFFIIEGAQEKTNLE

IC50 (read off the curve) (hAng2 [8]): ~1 nM
IC50 (read off the curve) (mAng2 [9]): ~3 nM
IC50 (read off the curve) (cAng2 [11]): ~2 nM
B3: 00956 (VHH)
VHH: EVQLVESGGGLVQPGGSLRLSCAASGFTLDDYAIGWFRQAPGKEREGVSAIRSSGGSTYYADSVKGRFTISSDNSKNTVYLQMNSLRPEDTAVYYCAAVPAGRLRFGEQWYPLYEYDAWGQGTLVTVSS
IC50 (read off the curve), hAng2 mediated HUVEC survival (hAng2 [10]): ~6 nM

binding result (human VEGFR2-Fc chimera): binds
B4: recombinant human VEGF121 (ligand, UniProt P15692-9 27-147, looked up)
chain: APMAEGGGQNHHEVVKFMDVYQRSYCHPIETLVDIFQEYPDEIEYIFKPSCVPLMRCGGCCNDEGLECVPTEESNITMQIMRIKPHQGQHIGEMSFLQHNKCECRPKKDRARQEKCDKPRR
notes: also called rhVEGF121; hVEGF121

IC50 (read off the curve) (mAng2 [12]): ~30 nM
IC50 (read off the curve) (hAng2 [13]): ~20 nM
IC50 (read off the curve) (cAng2 [15]): ~50 nM
B5: 00921 (VHH)
VHH: EVQLVESGGGLVQPGGSLRLSCAASGFTFDDYALGWFRQAPGKEREGVSCIRCSGGSTYYADSVKGRFTISSDNSKNTVYLQMNSLRPEDTAVYYCAASIVPRSKLEPYEYDAWGQGTLVTVSS
IC50 (read off the curve), hAng2 mediated HUVEC survival (hAng2 [14]): ~30 nM

Further lines, the binder ahead of its results:

B1: 00938 (VHH)
VHH: EVQLVESGGGLVQPGGSLRLSCAVSGITLDDYAIGWFRQAPGKEREGVSAIRSSGGSTYYADSVKGRFTISSDNSKNTVYLQMNSLRPEDTAVYYCAAVPAGRLRYGEQWYPIYEYDAWGQGTLVTVSS
IC50 (read off the curve) (mAng2 [1]): ~0.05 nM
IC50 (read off the curve) (hAng2 [2]): ~0.04 nM
IC50 (read off the curve) (cAng2 [3]): ~0.09 nM
IC50 (read off the curve), hAng2 mediated HUVEC survival (hAng2 [4]): ~5 nM

B2: 00908 (VHH)
VHH: EVQLVESGGGLVQPGGSLRLSCAASGITLDDYAIGWFRQAPGKEREGVSSIRDNGGSTYYADSVKGRFTISSDNSKNTVYLQMNSLRPEDTAVYYCAAVPAGRLRYGEQWYPIYEYDAWGQGTLVTVSS
notes: also called F009100908
IC50 (read off the curve) (hAng2 [5]): ~0.04 nM
IC50 (read off the curve) (mAng2 [6]): ~0.1 nM
IC50 (read off the curve) (cAng2 [7]): ~0.08 nM

B6: 1D01 (VHH)
VHH: EVQLVESGGGLVQAGGSLRLSCAASGFTFDDYALGWFRQAAGKEREGVSCIRCSDGSTYYADSVKGRFTISSDNAKNTVYLQMNSLKPEDTAVYYCAASIVPRSKLEPYEYDAWGQGTQVTVSS
IC50 (read off the curve) (cAng2 [16]): ~10 nM
IC50 (read off the curve) (mAng2 [17]): ~10 nM
IC50 (read off the curve) (hAng2 [18]): ~8 nM
IC50 (read off the curve) (mAng2 [19]): ~10 nM
IC50 (read off the curve) (cAng2 [20]): ~10 nM
IC50 (read off the curve) (cAng2 [21]): ~10 nM
IC50 (read off the curve) (mAng2 [22]): ~10 nM
